Source: patent US10287572B2, “Protein scaffolds and methods of use” (REGENTS OF THE UNIVERSITY OF MINNESOTA, priority 2013, dated 2019)

Legend:
[1] = Circular dichroism thermal denaturation; format: physicochemical; conditions: ellipticity at 218 nm, 24-98 °C, PBS
Description: Purified tGp2 was lyophilized and resuspended in PBS to a concentration of 0.3-0.9 mg mL^−1. Ellipticity was measured from 260 to 200 nm on a Jasco J-815 spectrophotometer (Jasco, Inc., Easton, Md.) in a quartz cuvette with 1 mm path length. Thermal denaturation was carried out by measuring the ellipticity at 218 nm from 24° C. to 98° C. and Tm was calculated from a standard two-state unfolding curve.

EGFR = target: T1, EGFR (Homo sapiens, UniProt P00533); experiment: In vitro cell labeling with tGp2-EGFR-His6, flow cytometry; format: cell-based
T1 construct: endogenous in cells; host or cells: A431, MDA-MB-231, MCF7
Description: Cells were pelleted, washed with PBSA, and labeled with fluorescein-conjugated rabbit anti-His6 antibody for 15 minutes at 4° C. Cells were pelleted and washed, and analyzed on an Accuri C6 flow cytometer (BD Biosciences, San Jose, Calif.).
Cell lines were labeled as above with biotinylated tGp2-EGFR-His6. Except, Alexa Fluor 488-conjugated streptavidin was used as the secondary label.
Additionally, ligand specificity was examined through target blocking. […] Cells were pelleted, washed, and labeled with Alexa Fluor 488-conjugated streptavidin for 15 minutes. After washing, flow cytometry was used to compare fluorescence of blocked and unblocked samples.

soluble EGFR ectodomain = soluble EGFR ectodomain (Homo sapiens, UniProt P00533); experiment: Yeast-displayed Gp2 binding to soluble EGFR ectodomain; conditions: 1 nM soluble EGFR ectodomain
Description: The plasmid containing the clone of interest was transformed into yeast using the Frozen EZ Transformation Kit II (Zymo Research Corp., Irvine, Calif.), plated on SD medium plates and then grown directly in SG medium at 30° C. for at least 12 hours to induce protein expression. Cells were pelleted and washed with PBSA (phosphate buffered saline with 0.1% bovine serum albumin) and resuspended in PBSA containing biotin conjugated target over a range of concentrations. […] The samples were incubated at 22° C. for an appropriate amount of time to reach 90% of the approach to equilibrium. After incubation, cells were washed and labeled with mouse anti-c-myc antibody (clone 9E10) for 10-15 minutes, washed, and labeled with fluorescein-conjugated goat anti-mouse antibody and Alexa Fluor 647-conjugated streptavidin for 10-15 minutes. Yeast were washed and Alexa Fluor 647 fluorescence was analyzed on a FACSCalibur flow cytometer (BD Biosciences, San Jose, Calif.). The relative fraction bound for cells displaying tGp2 was determined by subtracting background fluorescence of an unlabeled control and normalizing to the maximum saturated signal at high concentrations. The equilibrium dissociation constant, KD, was identified as the concentration where half-maximal binding occurred.

rabbit IgG = experiment: Equilibrium competition titration of soluble tGp2, rabbit IgG; format: binding; conditions: soluble protein, read-out: Affinity (KD) of soluble tGp2
Description: Soluble affinity of select tGp2 proteins was determined using equilibrium competition titration, as described previously (Lipovsek et al., J Mol Biol, 2007, 368:1024-1041). Briefly, the soluble tGp2 clone was allowed sufficient time to reach 90% equilibrium with biotin-conjugated target over a range of tGp2 concentrations. Yeast cells displaying the same tGp2 clone and yeast cells harboring no plasmid (to aid in pelleting) were added to the solution, and allowed to equilibrate for six days. Cells were washed, labeled for target binding and analyzed with flow cytometry, as above.

Substance | Melting temperature (Tm) by circular dichroism [1] [°C] | Binding to human cancer cell lines (EGFR; 0 or 1 μM Gp2 anti-EGFR, flow cytometry) | Blocking of labeled Gp2 binding by unlabeled Gp2 (EGFR; A431 cells, 1 μM unlabeled Gp2) | Kd (EGFR; A431 cells, His tag, anti-His6-FITC, flow cytometry, read-out: Affinity for A431 cells (average of two experiments)) [µM] | Binding of soluble EGFR ectodomain by displaying yeast (soluble EGFR ectodomain) | Kd (rabbit IgG) [µM]
GaE 2.3.3: EGFR-specific tGp2 scaffold; loop 1 SRGDSYW (SEQ ID NO:2), loop 2 PMYHIYY (SEQ ID NO:3), frame mutation W45R (KFWATVSRGDSYWFEVPVYAETLDEALELAERQYPMYHIYYVTRVRP) | 81 | binds to human cancer cell lines in an EGFR-dependent manner | blocks binding of labeled Gp2 to A431 cells | 0.05 | effectively bind | –
GaR 3.2.3: Rabbit IgG-binding tGp2 clone; loop 1 HSVHGY (SEQ ID NO:44), loop 2 GNALGY (SEQ ID NO:45), E44F, W45G (KFWATVHSVHGYFEVPVYAETLDEALELAFGQYGNALGYVTRVRP) | 80 | – | – | – | – | 0.001
tGp2 wild type: Truncated gene protein 2 of T7 phage, 5.2 kDa, 45 amino acids, SEQ ID NO:1 (KFWATVESSEHSFEVPVYAETLDEALELAEWQYYPAGFEVTRVRP; Enterobacteria phage T7) | 67 | – | – | – | – | –
